In the supplement of paper PMC9233669:
Fewer inactive variants are shown than the library holds.

Key:
biotinyl-Val-oxazolone = assay: self-aminoacylation, catalytic enhancement (BVO) (fold over background); higher = more active; k-Seq, kA / k0A0; sequences stand for … in GGGAAUGGAUCCACAUCUACGAAUUC…UUCACUGCAGACUUGACGAAGCUG
Procedure, shortened: (§1)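 Mutagenized RNA pools (0.43 μM; 21-nt variable region) were treated with 2–1250 μM of each biotinyl-aminoacyl-oxazolone. Conditions were 50 μL HEPES/NaCl/KCl/MgCl2/CaCl2 buffer, 5% acetonitrile, pH 6.9–7.0, room temperature, 90 minutes. Catalytic enhancement, the median kA relative to the uncatalyzed rate, was derived from streptavidin capture, qPCR and Illumina sequencing.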

biotinyl-Trp-oxazolone = assay: self-aminoacylation, catalytic enhancement (BWO) (fold over background); higher = more active; k-Seq, kA / k0A0; sequences stand for … in GGGAAUGGAUCCACAUCUACGAAUUC…UUCACUGCAGACUUGACGAAGCUG
Procedure, shortened: as §1

biotinyl-Met-oxazolone = assay: self-aminoacylation, catalytic enhancement (BMO) (fold over background); higher = more active; k-Seq, kA / k0A0; sequences stand for … in GGGAAUGGAUCCACAUCUACGAAUUC…UUCACUGCAGACUUGACGAAGCUG
Procedure, shortened: as §1

biotinyl-Phe-oxazolone = assay: self-aminoacylation, catalytic enhancement (BFO) (fold over background); higher = more active; k-Seq, kA / k0A0; sequences stand for … in GGGAAUGGAUCCACAUCUACGAAUUC…UUCACUGCAGACUUGACGAAGCUG
Procedure, shortened: as §1

biotinyl-Leu-oxazolone = assay: self-aminoacylation, catalytic enhancement (BLO) (fold over background); higher = more active; k-Seq, kA / k0A0; sequences stand for … in GGGAAUGGAUCCACAUCUACGAAUUC…UUCACUGCAGACUUGACGAAGCUG
Procedure, shortened: as §1

biotinyl-Ile-oxazolone = assay: self-aminoacylation, catalytic enhancement (BIO) (fold over background); higher = more active; k-Seq, kA / k0A0; sequences stand for … in GGGAAUGGAUCCACAUCUACGAAUUC…UUCACUGCAGACUUGACGAAGCUG
Procedure, shortened: as §1

Sequence	self-aminoacylation (biotinyl-Val-oxazolone)	self-aminoacylation (biotinyl-Trp-oxazolone)	self-aminoacylation (biotinyl-Met-oxazolone)	self-aminoacylation (biotinyl-Phe-oxazolone)	self-aminoacylation (biotinyl-Leu-oxazolone)	self-aminoacylation (biotinyl-Ile-oxazolone)
CUAAUUCUAACAAUCGGUCUG [Fam1A.1 aminoacylation ribozyme variant]	0.714	0.474	0.652	0.731	0.624	0.751
AUACGCCUAGGUCAUCGGGUG [Fam2.2 aminoacylation ribozyme variant]	4.07	7.38	7.57	36	7.77	4.85
AUUCACCUGUGUCAUCGGGUG [Fam2.2 aminoacylation ribozyme variant]	6.51	8.96	10.8	28.1	15.7	5.71
AUUCACCUAGCUCAUGGGGUG [Fam2.2 aminoacylation ribozyme variant]	2.8	4.56	5.15	32.8	5.64	2.97
CCACUCUUCAAGCAAUAGGUC [Fam1B.1 aminoacylation ribozyme variant]	0.668	0.484	0.558	0.921	0.669	0.784
AAGUUUGCUAAUUGUCGCUAG [Fam3.1 aminoacylation ribozyme variant]	1.02	1.08	1	0.848	1.17	0.95
AGGUUUGCUGAUAGUCGCAAG [Fam3.1 aminoacylation ribozyme variant]	1.2	1.83	1.53	2.52	1.83	1.49
AUUACCCUAUUCAUCGAGUGA [Fam2.1 aminoacylation ribozyme variant]	2.66	6.86	4.25	17.3	4.15	2.37
CCACACUUCAAUCAAUGGGUC [Fam1B.1 aminoacylation ribozyme variant]	0.724	0.467	0.651	0.724	0.564	0.801
AUUACCCUGGUCUUCGACUGA [Fam2.1 aminoacylation ribozyme variant]	0.737	0.675	0.832	0.68	0.717	0.992
CCACACGUCAAGCAAUCGGUG [Fam1B.1 aminoacylation ribozyme variant]	2.78	2.35	2.02	9.7	1.59	1.63
AUUAACCUGGUCAUCGUGUGA [Fam2.1 aminoacylation ribozyme variant]	1.82	3.69	3.13	13.1	3.13	1.69
CUACUUCAAACAAGUGGUCUG [Fam1A.1 aminoacylation ribozyme variant]	0.919	0.516	0.7	0.734	0.885	0.968
CUACUUCAAACAAGCGCUCUG [Fam1A.1 aminoacylation ribozyme variant]	0.86	0.842	0.654	0.571	0.852	0.868
CCACACUUCAACCAAUCGGGC [Fam1B.1 aminoacylation ribozyme variant]	2.93	2.09	1.75	3.78	2.24	1.91
CAGUUUGGUAAUAGUCGCAAG [Fam3.1 aminoacylation ribozyme variant]	1.67	1.97	1.73	2.57	1.73	1.85
CCAUACUUCAAGCAAUCGGUA [Fam1B.1 aminoacylation ribozyme variant]	1.26	1.1	1.22	1.04	1.1	1.33
CUCCUUCAAACAAUCGGUCGG [Fam1A.1 aminoacylation ribozyme variant]	1.33	24.2	1.96	62.4	2.14	1.32
AACUUUGCUAAUAGUCGGAAG [Fam3.1 aminoacylation ribozyme variant]	1.4	1.49	1.38	3.03	1.15	1.43
CUACAUCAAACAAUCGGUCUA [Fam1A.1 aminoacylation ribozyme variant]	0.922	0.755	0.802	1.61	0.58	0.669
AUUACCCUGGUCAUGGAGUGA [Fam2.1 aminoacylation ribozyme variant]	3.02	5.8	4.69	19.7	4.95	3.07
AGUCGCCUAGGUCAUCGGGUG [Fam2.2 aminoacylation ribozyme variant]	5.42	9.01	6.31	49	7.99	5.29
UUACUUCAAACAAUCGGUCCG [Fam1A.1 aminoacylation ribozyme variant]	0.891	1.64	0.942	1.69	0.937	0.82
AUUACCGUGGUCAUCGAGUUA [Fam2.1 aminoacylation ribozyme variant]	1.02	0.691	0.946	0.524	0.897	1.09
AAGUUUGCUAAUAGUGGCACG [Fam3.1 aminoacylation ribozyme variant]	0.689	0.733	0.636	0.682	0.622	0.684
AUUACCCGGAUCAUCGAGUGA [Fam2.1 aminoacylation ribozyme variant]	4.04	7.26	7.04	38.4	7.92	3.43
